Source: patent US20100119516A1 (Eli Lilly, published 2010)

T1: mouse TGFβRII-Fc (recombinant extracellular domain of mouse TGFβRII linked with mouse Fc or heavy chain … (mouse))
T1 construct: also called murine TGFβRII; not shown: mouse Fc or heavy chain constant region
T1 chain: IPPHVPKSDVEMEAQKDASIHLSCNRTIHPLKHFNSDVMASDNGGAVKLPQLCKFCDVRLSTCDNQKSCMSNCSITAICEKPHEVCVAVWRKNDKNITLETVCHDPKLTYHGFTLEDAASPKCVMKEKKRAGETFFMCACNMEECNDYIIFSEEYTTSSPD


Assays:
[1] = biological target: T2, human TGFβRII-Fc (recombinant extracellular domain of human TGFβRII linked with human Fc or heavy chain … (human, UniProt P37173 23-166)); assay: SPR (BIAcore 2000), human TGFβRII ECD-Fc immobilised, room temperature
T2 construct: not shown: human Fc or heavy chain constant region
Method: (§1) Kinetic analyses of the mAbs are performed by immobilization of a fusion protein of recombinant extracellular domain of either mouse TGFβRII (SEQ ID NO: 51), or the extracellular domain of human TGFβRII (SEQ ID NO: 52) linked, respectively, with either mouse or human Fc or heavy chain constant region, onto a sensor surface at a concentration of from 5 to 100 nM.

[2] = biological target: T3, soluble recombinant human TGFβRII alkaline phosphatase (TGFβRII-AP) (human, UniProt P37173 23-166); assay: blocking ELISA: TGFβRII-AP binding to coated human TGFβ1
T3 construct: also called TGFβII-AP; not shown: alkaline phosphatase fusion partner
Text: (§2) At day 10 to 12 post-fusion, the hybridomas are screened for antibody production and specific binding activity of culture supernatants with TGFβRII protein in ELISA-based binding and blocking assays. Specifically, hybridomas producing anti-TGFβRII mAbs are first identified by detection of TGFβRII-bound antibody with a goat anti-human kappa light chain or anti-mouse IgG horse radish peroxidase (HRP) conjugated antibody according to the following procedure. Human TGFβRII-Fc or mouse TGFβRII-Fc is coated at 100 ng/well on 96 microtiter plates at 4° C. overnight. The coated plates are blocked with the blocking buffer (PBS 0.05% TWEEN® 20 containing 5% dry milk) at room temperature for 2 hours. Hybridoma supernatants or purified antibodies are diluted in PBS with 2% bovine serum albumin (BSA) and 0.05% TWEEN® 20 (ELISA buffer) and incubated in TGFβRII-coated, 96-well, microtiter plates for 30 minutes. Plates are washed with the ELISA buffer and incubated with goat anti-human kappa light chain or anti-mouse IgG-HRP conjugate for 30 minutes. TMB (3,3′,5,5′-tetra-methylbenzidine) substrate is used for color development following the manufacturer's instructions. The absorbance at 450 nanometers (nm) is read for quantification of binding activity of antibodies. For identification of hybridomas producing neutralizing anti-TGFβRII mAbs, an ELISA based blocking assay is performed according to the following procedure. TGFβ1, TGFβ2, or TGFβ3 is coated at 200 ng per well on 96-well plates, and wells are then blocked with the blocking buffer. […] The absorbance at 405 nm is read for quantification of TGFβRII-binding to TGFβ1, TGFβ2, and TGFβ3. Optical density (OD) values are read on a microtiter plate reader (Molecular Devices Corp., Sunnyvale, Calif.).
(§3) The binding and blocking activity of purified anti-TGFβRII mAbs is determined in ELISA as described in “Generation of anti-TGFβRII mAbs” above. ED₅₀ and IC₅₀ of the antibodies are analyzed using GraphPad Prism® software 3.03 (GraphPad Software Inc., San Diego, Calif.).

[3] = biological target: T3, soluble recombinant human TGFβRII …; assay: blocking ELISA: TGFβRII-AP binding to coated human TGFβ3
Text: as §2, §3

[4] = biological target: T3, soluble recombinant human TGFβRII …; assay: blocking ELISA: TGFβRII-AP binding to coated human TGFβ2
Text: as §2, §3

[5] = biological target: T2, human TGFβRII-Fc (recombinant …); assay: binding ELISA on coated human TGFβRII-Fc (given as ED50)
Text: as §2, §3

[6] = biological target: T1, mouse TGFβRII-Fc (recombinant …); assay: ELISA
[7] = biological target: T2, human TGFβRII-Fc (recombinant …); assay: SPR (Biacore), human TGFβRII ECD-Fc immobilised, room temperature
Method: as §1

[8] = biological target: T4, native human TGFβRII expressed on the cell surface (human, UniProt P37173 23-567); assay: cell-based or functional assay
[9] = biological target: T4, native human TGFβRII expressed on the …; assay: flow cytometry on MDA-MB-231 human breast carcinoma cells; MFI against isotype control
Method: (§4) Binding activity of anti-human TGFβRII mAb TGF1 and fluorescein isothiocyanate (FITC)-labeled goat anti-human IgG antibody may be determined by a staining assay with 293-human TGFβRII transfectant cells and human carcinoma cells. Specifically, aliquots of transfectant cells, carcinoma cells, spleen cells, or lymph node cells are harvested from subconfluent cultures and incubated with fluorescein-labeled or unlabeled primary antibodies to desired molecules in PBS with 1% BSA (staining buffer) for 1 hour on ice. A matched IgG isotype is used as a negative control. Cells are washed twice with the staining buffer and then incubated with FITC, Phycoerythrin (PE) or Alxas Red labeled species-specific secondary antibody to primary antibody (BioSource International, Camarillo, Calif.) in the buffer for 30 min on ice. Cells are washed as above and analyzed on a flow cytometer. […] The mean fluorescent intensity units (MFIU) are calculated as the mean log fluorescence multiplied by the percentage of positive population. The mean fluorescent intensity ratio (MFIR) is calculated to quantitate relative expression levels of TGFβRII in the cell lines. The MFIR is the mean fluorescence intensity (MFI) of cells stained with TGFβRII specific mAb divided by the MFI of cells stained with an isotype control antibody.

[10] = biological target: T4, native human TGFβRII expressed on the …; assay: flow cytometry on 293-human TGFβRII transfectant cells; MFI against isotype control
Method: as §4

T2 sequence (P37173 23-166): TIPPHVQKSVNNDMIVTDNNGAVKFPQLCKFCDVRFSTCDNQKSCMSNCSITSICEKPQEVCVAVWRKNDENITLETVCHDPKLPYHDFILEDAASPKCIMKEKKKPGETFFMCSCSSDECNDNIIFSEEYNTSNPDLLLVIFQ
T3 sequence (P37173 23-166): as above
T4 sequence (P37173 23-567): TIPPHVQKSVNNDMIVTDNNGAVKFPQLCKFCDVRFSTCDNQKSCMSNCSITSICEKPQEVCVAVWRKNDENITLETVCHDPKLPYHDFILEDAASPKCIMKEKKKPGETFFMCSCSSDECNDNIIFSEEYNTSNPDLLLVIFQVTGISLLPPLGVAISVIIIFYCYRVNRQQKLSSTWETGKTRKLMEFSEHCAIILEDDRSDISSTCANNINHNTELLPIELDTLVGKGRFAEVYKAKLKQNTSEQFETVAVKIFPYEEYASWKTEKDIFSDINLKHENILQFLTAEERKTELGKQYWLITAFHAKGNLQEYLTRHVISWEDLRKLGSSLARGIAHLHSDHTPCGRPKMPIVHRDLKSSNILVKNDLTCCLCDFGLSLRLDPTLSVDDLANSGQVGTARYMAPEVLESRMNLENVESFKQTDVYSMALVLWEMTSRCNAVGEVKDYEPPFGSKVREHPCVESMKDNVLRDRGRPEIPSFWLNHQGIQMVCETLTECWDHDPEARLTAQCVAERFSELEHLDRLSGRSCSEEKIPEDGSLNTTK

| Kd [1] | koff [1] | kon [1] | IC50 [2] | IC50 [3] | IC50 [4] | EC50 [5] | binding result [6] | Kd [7] | IC50 in the p-Smad2 inhibition assay (TGFβ-induced phosphorylation of Smad2) [8] | MFIR (mean fluorescent intensity ratio) [9] | IC50 in the p-Smad2 inhibition assay (TGFβ-induced phosphorylation of Smad2, MDA-MB-231 cells, Western blot) [8] | MFIR (mean fluorescent intensity ratio) [10] | Binder |
| --- | --- | --- | --- | --- | --- | --- | --- | --- | --- | --- | --- | --- | --- |
| 0.078 nM | 3.4e-05 s⁻¹ | 430000 M⁻¹ s⁻¹ | 0.19 nM | 0.25 nM | 0.42 nM | 0.048 nM | binds | 0.078 nM | < 25 nM |  |  |  | anti-human TGFβRII mAb TGF2 (antibody, V domains shown, Human IgG1 with kappa light chain) VH: QVQLVQSGAAVKKPGESLKISCKGSGYRFTSYWIGWVRQMPGKGLEWMGIIYPGDSDTRYSPSFQGQVTISAGKSISTAYLQWSSLKASDTAMYYCARHGRGYNGYEGAFDIWGQGTMVTVSS VL: DIQMTQSPSSLSASVGDRVTITCRASQGISSWLAWYQQKPEKAPKSLIYAASSLQSGVPSRFSGSGSGTDFTLTISSLQPEDFATYYCQQYNSYPWTFGQGTKVEIKG |
| 0.011 nM | 1.7e-05 s⁻¹ | 1.5e+06 M⁻¹ s⁻¹ | 0.12 nM | 0.19 nM | 0.54 nM | 0.059 nM |  | 0.011 nM |  | 209 | 5 nM | 46 | anti-human TGFβRII mAb TGF1 (antibody, human IgG1, kappa, V domains shown, Human antibody from human-immunoglobulin transgenic mice, engineered as full-length human IgG1 with kappa light chain) VH: QLQVQESGPGLVKPSETLSLTCTVSGGSISNSYFSWGWIRQPPGKGLEWIGSFYYGEKTYYNPSLKSRATISIDTSKSQFSLKLSSVTAADTAVYYCPRGPTMIRGVIDSWGQGTLVTVSS VL: EIVLTQSPATLSLSPGERATLSCRASQSVRSYLAWYQQKPGQAPRLLIYDASNRATGIPARFSGSGSGTDFTLTISSLEPEDFAVYYCQQRSNWPPTFGQGTKVEIKG |
| 0.019 nM | 2.7e-05 s⁻¹ | 1.4e+06 M⁻¹ s⁻¹ | 0.1 nM | 0.13 nM | 0.41 nM | 0.031 nM | binds | 0.019 nM | < 25 nM |  |  |  | anti-human TGFβRII mAb TGF3 (antibody, human IgG1, kappa, V domains shown, Human IgG1 with kappa light chain) VH: QLQLQESGPGLVKPSETLSLTCTVSGGSISSSSYSWGWIRQPPGKGLEWIGSFYYSGITYYSPSLKSRIIISEDTSKNQFSLKLSSVTAADTAVYYCASGFTMIRGALDYWGQGTLVTVSS VL: EIVLTQSPATLSLSPGERATLSCRASQSVRSFLAWYQQKPGQAPRLLIYDASNRATGIPARFSGSGSGTDFTLTISSLEPEDFAVYYCQQRSNWPPTFGQGTKVEIKG |
